In patent publication US20100211325A1:
Numbering of substitutions follows the chain as printed. In names and notes the source's numbering stands. Values belong to the binder of their own block, whether it stands above or below them.

Legend:
[1] = molecular target: Laminin 511/521 (LM511/521) (UniProt O15230); assay: ELISA, 0.05 nM Lu gpFc captured by anti-human Fc, 5 nM LM511/521, anti-laminin detection
[2] = molecular target: Laminin 511/521 (LM511/521) (UniProt O15230); assay: SPR (Biacore) of FIG. 6e, 100 µl injection of 10 nM LM511/521 at 30 µl/min
[3] = molecular target: Laminin 511/521 (LM511/521) (UniProt O15230); assay: SPR (Biacore X), Lu gpFc captured on protein A chip (40 RU), 100 µl injection of 10 nM LM511/521, total change in RU
[4] = molecular target: Laminin 511/521 (LM511/521) (UniProt O15230); assay: not given
[5] = molecular target: Laminin 511/521 (LM511/521) (UniProt O15230); assay: electron tomography (Protein Tomography) of an equimolar mixture of Lu gpFc and LM511/521
[6] = molecular target: Laminin 511/521 (LM511/521) (UniProt O15230); assay: ELISA of FIG. 6d, 0.05 nM Lu protein, LM511/521 added, anti-laminin detection
[7] = molecular target: Laminin 511/521 (LM511/521) (UniProt O15230); assay: ELISA of FIG. 3c, 0.05 nM Lu gpFc captured by anti-Fc, LM511/521 added, anti-laminin detection
[8] = molecular target: Laminin 511/521 (LM511/521) (UniProt O15230); assay: cell-based or functional assay
[9] = molecular target: Laminin 511/521 (LM511/521) (UniProt O15230); assay: ELISA, Lu protein captured, 5 nM LM511/521, against native Lu gp or D1+2+3+4
[10] = molecular target: Laminin 511/521 (LM511/521) (UniProt O15230); assay: SPR (Biacore), Lu protein captured, 10 nM LM511/521, against native Lu gp or D1+2+3+4

ELISA % of native Lu gpFc [1]: 100%
total change in RU [2]: 129 RU
Biacore Δ RUs [3]: 115 RU
Kd [4]: 7.9 nM
koff [4]: 0.0126 s⁻¹
kon [4]: 1.6e+06 M⁻¹ s⁻¹
% of LM511/521 molecules bound to Lu gpFc [5]: 50 to 60%
OD450 [6]: 0.99 OD450
OD450 [7]: 0.95 OD450
B1: Native Lu gpFc fusion protein (five extracellular domains of human Lutheran glycoprotein fused to Fc) (Fc fusion, not shown: a dimerising Fc or GST)
chain: EVRLSVPPLVEVMRGKSVILDCTPTGTHDHYMLEWFLTDRSGARPRLASAEMQGSELQVTMHDTRGRSPPYQLDSQGRLVLAEAQVGDERDYVCVVRAGAAGTAEATARLNVFAKPEATEVSPNKGTLSVMEDSAQEIATCNSRNGNPAPKITWYRNGQRLEVPVEMNPEGYMTSRTVREASGLLSLTSTLYLRLRKDDRDASFHCAAHYSLPEGRHGRLDSPTFHLTLHYPTEHVQFWVGSPSTPAGWVREGDTVQLLCRGDGSPSPEYTLFRLQDEQEEVLNVNLEGNLTLEGVTRGQSGTYGCRVEDYDAADDVQLSKTLELRVAYLDPLELSEGKVLSLPLNSSAVVNCSVHGLPTPALRWTKDSTPLGDGPMLSLSSITFDSNGTYVCEASLPTVPVLSRTQNFTLLVQGSPELKTAEIEPKADGSWREGDEVTLICSARGHPDPKLSWSQLGGSPAEPIPGRQGWVSSSLTLKVTSALSRDGISCEASNPHGNKRHVFHFGTVSPQTSQA

ELISA % of native Lu gpFc [1]: 104%
Biacore Δ RUs [3]: 78.3 RU
B2: Lu gpFc E180A (Fc fusion, not shown: a dimerising Fc or GST)
chain: B1 chain with E180A

% of the binding of native Lu gp (ELISA) [9]: 68%
% of the binding of native Lu gp (Biacore) [10]: 42%
B5: Lu gpFc domain deletion protein D1+2+3b (domains 1, 2 and 3, ending L354EL-…-Fc) (Fc fusion, not shown: a dimerising Fc or GST)
chain: EVRLSVPPLVEVMRGKSVILDCTPTGTHDHYMLEWFLTDRSGARPRLASAEMQGSELQVTMHDTRGRSPPYQLDSQGRLVLAEAQVGDERDYVCVVRAGAAGTAEATARLNVFAKPEATEVSPNKGTLSVMEDSAQEIATCNSRNGNPAPKITWYRNGQRLEVPVEMNPEGYMTSRTVREASGLLSLTSTLYLRLRKDDRDASFHCAAHYSLPEGRHGRLDSPTFHLTLHYPTEHVQFWVGSPSTPAGWVREGDTVQLLCRGDGSPSPEYTLFRLQDEQEEVLNVNLEGNLTLEGVTRGQSGTYGCRVEDYDAADDVQLSKTLELRVAYLNSPQTSQA

Continued, binder first:

B3: Lu gpFc E132A/D133A (Fc fusion, not shown: a dimerising Fc or GST)
chain: B1 chain with E132A, D133A
ELISA % of native Lu gpFc [1]: 69.4%
Biacore Δ RUs [3]: 57.3 RU

B4: Human Lutheran glycoprotein on cells (K562 transfectant expressing Lu gp; late stage erythroblasts) (receptor)
chain: EVRLSVPPLVEVMRGKSVILDCTPTGTHDHYMLEWFLTDRSGARPRLASAEMQGSELQVTMHDTRGRSPPYQLDSQGRLVLAEAQVGDERDYVCVVRAGAAGTAEATARLNVFAKPEATEVSPNKGTLSVMEDSAQEIATCNSRNGNPAPKITWYRNGQRLEVPVEMNPEGYMTSRTVREASGLLSLTSTLYLRLRKDDRDASFHCAAHYSLPEGRHGRLDSPTFHLTLHYPTEHVQFWVGSPSTPAGWVREGDTVQLLCRGDGSPSPEYTLFRLQDEQEEVLNVNLEGNLTLEGVTRGQSGTYGCRVEDYDAADDVQLSKTLELRVAYLDPLELSEGKVLSLPLNSSAVVNCSVHGLPTPALRWTKDSTPLGDGPMLSLSSITFDSNGTYVCEASLPTVPVLSRTQNFTLLVQGSPELKTAEIEPKADGSWREGDEVTLICSARGHPDPKLSWSQLGGSPAEPIPGRQGWVSSSLTLKVTSALSRDGISCEASNPHGNKRHVFHFGTVSPQTSQAGVAVMAVAVSVGLLLLVVAVFYCVRRKGGPCCRQRREKGAPPPGEPGLSHSGSEQPEQTGLLMGGASGGARGGSGGFGDEC
cell adhesion assay: % of cells bound to coated laminin [8]: 70 to 85%
